# Test results from patent publication US20170190753A1 (LABORATOIRE FRANCAIS DU FRACTIONNEMENT ET DES …, published 2017).
# B1: pCEP4-1NT9-11CT20 (other)
# chain: EDCNELPPRRNTEILTGSWSDQTYPEGTQAIYKCRPGYRSLGNVIMVCRKGEWVALNPLRKCQKRPCGHPGDTPFGTFTLTGGNVFEYGVKAVYTCNEGYQLLGEINYRECDTDGWTNDIPICEVVKCLPVTAPENGKIVSSAMEPDREYHFGQAVRFVCNSGYKIEGDEEMHCSDDGFWSKEKPKCVEISCKSPDVINGSPISQKIIYKENERFQYKCNMGYEYSERGDAVCTESGWRPLPSCEEKSCDNPYIPNGDYSPLRIKHRTGDEITYQCRNGFYPATRGNTAKCTSTGWIPAPRCTLKPCDYPDIKHGGLYHENMRRPYFPVAVGKYYSYYCDEHFETPSGSYWDHIHCTQDGWSPAVPCLRKCYFPYLENGYNQNHGRKFVQGKSIDVACHPGYALPKAQTTVTCMENGWSPTPRCIRVKTCSKSSIDIENGFISESQYTYALKEKAKYQCKLGYVTADGETSGSITCGKDGWSAQPTCIKSCDIPVFMNARTKNDFTWFKLNDTLDYECHDGYESNTGSTTGSIVCGYNGWSDLPICYEREGASGCGPPPELLNGNVKEKTKEEYGHSEVVEYYCNPRFLMKGPNKIQCVDGEWTTLPVCIVEESTCGDIPELEHGWAQLSSPPYYYGDSVEFNCSESFTMIGHRSITCIHGVWTQLPQCVAIDKLKKCKSSNLIILEEHLKNKKEFDHNSNIRYRCRGKEGWIHTVCINGRWDPEVNCSMAQIQLCPPPPQIPNSHNMTTTLNYRDGEKVSVLCQENYLIQEGEEITCKDGRWQSIPLCVEKIPCSQPPQIEHGTINSSRSSQESYAHGTKLSYTCEGGFRISEENETTCYMGKWSSPPQCEGLPCKSPPEISHGVVAHMSDSYQYGEEVTYKCFEGFGIDGPAIAKCLGEKWSHPPSCIKTDCLSLPSFENAIPMGEKKDVYKAGEQVTYTCATYYKMDGASNVTCINSRWTGRPTCRDTSCVNPPTVQNAYIVSRQMSKYPSGERVRYQCRSPYEMFGDEEVMCLNGNWTEPPQCKDSTGKCGPPPPIDNGDITSFPLSVYAPASSVEYQCQNLYQLEGNKRITCRNGQWSEPPKCLHPCVISREIMENYNIALRWTAKQKLYSRTGESVEFVCKRGYRLSSRSHTLRTTCWDGKLEYPTCAKRGGSGHHHHHH
# B2: pCEP4-1NT4-19CT20 (other)
# chain: EDCNELPPRRNTEILTGSWSDQTYPEGTQAIYKCRPGYRSLGNVIMVCRKGEWVALNPLRKCQKRPCGHPGDTPFGTFTLTGGNVFEYGVKAVYTCNEGYQLLGEINYRECDTDGWTNDIPICEVVKCLPVTAPENGKIVSSAMEPDREYHFGQAVRFVCNSGYKIEGDEEMHCSDDGFWSKEKPKCVEISCKSPDVINGSPISQKIIYKENERFQYKCNMGYEYSERGDAVCTESGWRPLPSCEEKSGASGCGPPPPIDNGDITSFPLSVYAPASSVEYQCQNLYQLEGNKRITCRNGQWSEPPKCLHPCVISREIMENYNIALRWTAKQKLYSRTGESVEFVCKRGYRLSSRSHTLRTTCWDGKLEYPTCAKRGGSGHHHHHH
# B3: pCEP4-1NT8-11CT20 (other)
# chain: EDCNELPPRRNTEILTGSWSDQTYPEGTQAIYKCRPGYRSLGNVIMVCRKGEWVALNPLRKCQKRPCGHPGDTPFGTFTLTGGNVFEYGVKAVYTCNEGYQLLGEINYRECDTDGWTNDIPICEVVKCLPVTAPENGKIVSSAMEPDREYHFGQAVRFVCNSGYKIEGDEEMHCSDDGFWSKEKPKCVEISCKSPDVINGSPISQKIIYKENERFQYKCNMGYEYSERGDAVCTESGWRPLPSCEEKSCDNPYIPNGDYSPLRIKHRTGDEITYQCRNGFYPATRGNTAKCTSTGWIPAPRCTLKPCDYPDIKHGGLYHENMRRPYFPVAVGKYYSYYCDEHFETPSGSYWDHIHCTQDGWSPAVPCLRKCYFPYLENGYNQNYGRKFVQGKSIDVACHPGYALPKAQTTVTCMENGWSPTPRCIRVKTCSKSSIDIENGFISESQYTYALKEKAKYQCKLGYVTADGETSGSITCGKDGWSAQPTCIKSGASGCGPPPELLNGNVKEKTKEEYGHSEVVEYYCNPRFLMKGPNKIQCVDGEWTTLPVCIVEESTCGDIPELEHGWAQLSSPPYYYGDSVEFNCSESFTMIGHRSITCIHGVWTQLPQCVAIDKLKKCKSSNLIILEEHLKNKKEFDHNSNIRYRCRGKEGWIHTVCINGRWDPEVNCSMAQIQLCPPPPQIPNSHNMTTTLNYRDGEKVSVLCQENYLIQEGEEITCKDGRWQSIPLCVEKIPCSQPPQIEHGTINSSRSSQESYAHGTKLSYTCEGGFRISEENETTCYMGKWSSPPQCEGLPCKSPPEISHGVVAHMSDSYQYGEEVTYKCFEGFGIDGPAIAKCLGEKWSHPPSCIKTDCLSLPSFENAIPMGEKKDVYKAGEQVTYTCATYYKMDGASNVTCINSRWTGRPTCRDTSCVNPPTVQNAYIVSRQMSKYPSGERVRYQCRSPYEMFGDEEVMCLNGNWTEPPQCKDSTGKCGPPPPIDNGDITSFPLSVYAPASSVEYQCQNLYQLEGNKRITCRNGQWSEPPKCLHPCVISREIMENYNIALRWTAKQKLYSRTGESVEFVCKRGYRLSSRSHTLRTTCWDGKLEYPTCAKRGGSGHHHHHH
# B4: pCEP4-1NT7-8CT20 (other)
# chain: EDCNELPPRRNTEILTGSWSDQTYPEGTQAIYKCRPGYRSLGNVIMVCRKGEWVALNPLRKCQKRPCGHPGDTPFGTFTLTGGNVFEYGVKAVYTCNEGYQLLGEINYRECDTDGWTNDIPICEVVKCLPVTAPENGKIVSSAMEPDREYHFGQAVRFVCNSGYKIEGDEEMHCSDDGFWSKEKPKCVEISCKSPDVINGSPISQKIIYKENERFQYKCNMGYEYSERGDAVCTESGWRPLPSCEEKSCDNPYIPNGDYSPLRIKHRTGDEITYQCRNGFYPATRGNTAKCTSTGWIPAPRCTLKPCDYPDIKHGGLYHENMRRPYFPVAVGKYYSYYCDEHFETPSGSYWDHIHCTQDGWSPAVPCLRKCYFPYLENGYNQNYGRKFVQGKSIDVACHPGYALPKAQTTVTCMENGWSPTPRCIRVKTGASGCSKSSIDIENGFISESQYTYALKEKAKYQCKLGYVTADGETSGSITCGKDGWSAQPTCIKSCDIPVFMNARTKNDFTWFKLNDTLDYECHDGYESNTGSTTGSIVCGYNGWSDLPICYERECELPKIDVHLVPDRKKDQYKVGEVLKFSCKPGFTIVGPNSVQCYHFGLSPDLPICKEQVQSCGPPPELLNGNVKEKTKEEYGHSEVVEYYCNPRFLMKGPNKIQCVDGEWTTLPVCIVEESTCGDIPELEHGWAQLSSPPYYYGDSVEFNCSESFTMIGHRSITCIHGVWTQLPQCVAIDKLKKCKSSNLIILEEHLKNKKEFDHNSNIRYRCRGKEGWIHTVCINGRWDPEVNCSMAQIQLCPPPPQIPNSHNMTTTLNYRDGEKVSVLCQENYLIQEGEEITCKDGRWQSIPLCVEKIPCSQPPQIEHGTINSSRSSQESYAHGTKLSYTCEGGFRISEENETTCYMGKWSSPPQCEGLPCKSPPEISHGVVAHMSDSYQYGEEVTYKCFEGFGIDGPAIAKCLGEKWSHPPSCIKTDCLSLPSFENAIPMGEKKDVYKAGEQVTYTCATYYKMDGASNVTCINSRWTGRPTCRDTSCVNPPTVQNAYIVSRQMSKYPSGERVRYQCRSPYEMFGDEEVMCLNGNWTEPPQCKDSTGKCGPPPPIDNGDITSFPLSVYAPASSVEYQCQNLYQLEGNKRITCRNGQWSEPPKCLHPCVISREIMENYNIALRWTAKQKLYSRTGESVEFVCKRGYRLSSRSHTLRTTCWDGKLEYPTCAKRGGSGHHHHHH
# B5: pCEP4-1NT7-14CT20 (other)
# chain: EDCNELPPRRNTEILTGSWSDQTYPEGTQAIYKCRPGYRSLGNVIMVCRKGEWVALNPLRKCQKRPCGHPGDTPFGTFTLTGGNVFEYGVKAVYTCNEGYQLLGEINYRECDTDGWTNDIPICEVVKCLPVTAPENGKIVSSAMEPDREYHFGQAVRFVCNSGYKIEGDEEMHCSDDGFWSKEKPKCVEISCKSPDVINGSPISQKIIYKENERFQYKCNMGYEYSERGDAVCTESGWRPLPSCEEKSCDNPYIPNGDYSPLRIKHRTGDEITYQCRNGFYPATRGNTAKCTSTGWIPAPRCTLKPCDYPDIKHGGLYHENMRRPYFPVAVGKYYSYYCDEHFETPSGSYWDHIHCTQDGWSPAVPCLRKCYFPYLENGYNQNYGRKFVQGKSIDVACHPGYALPKAQTTVTCMENGWSPTPRCIRVKTGASGCPPPPQIPNSHNMTTTLNYRDGEKVSVLCQENYLIQEGEEITCKDGRWQSIPLCVEKIPCSQPPQIEHGTINSSRSSQESYAHGTKLSYTCEGGFRISEENETTCYMGKWSSPPQCEGLPCKSPPEISHGVVAHMSDSYQYGEEVTYKCFEGFGIDGPAIAKCLGEKWSHPPSCIKTDCLSLPSFENAIPMGEKKDVYKAGEQVTYTCATYYKMDGASNVTCINSRWTGRPTCRDTSCVNPPTVQNAYIVSRQMSKYPSGERVRYQCRSPYEMFGDEEVMCLNGNWTEPPQCKDSTGKCGPPPPIDNGDITSFPLSVYAPASSVEYQCQNLYQLEGNKRITCRNGQWSEPPKCLHPCVISREIMENYNIALRWTAKQKLYSRTGESVEFVCKRGYRLSSRSHTLRTTCWDGKLEYPTCAKRGGSGHHHHHH
# B6: pCEP4-1NT4-16CT20 (other)
# chain: EDCNELPPRRNTEILTGSWSDQTYPEGTQAIYKCRPGYRSLGNVIMVCRKGEWVALNPLRKCQKRPCGHPGDTPFGTFTLTGGNVFEYGVKAVYTCNEGYQLLGEINYRECDTDGWTNDIPICEVVKCLPVTAPENGKIVSSAMEPDREYHFGQAVRFVCNSGYKIEGDEEMHCSDDGFWSKEKPKCVEISCKSPDVINGSPISQKIIYKENERFQYKCNMGYEYSERGDAVCTESGWRPLPSCEEKSGASGCKSPPEISHGVVAHMSDSYQYGEEVTYKCFEGFGIDGPAIAKCLGEKWSHPPSCIKTDCLSLPSFENAIPMGEKKDVYKAGEQVTYTCATYYKMDGASNVTCINSRWTGRPTCRDTSCVNPPTVQNAYIVSRQMSKYPSGERVRYQCRSPYEMFGDEEVMCLNGNWTEPPQCKDSTGKCGPPPPIDNGDITSFPLSVYAPASSVEYQCQNLYQLEGNKRITCRNGQWSEPPKCLHPCVISREIMENYNIALRWTAKQKLYSRTGESVEFVCKRGYRLSSRSHTLRTTCWDGKLEYPTCAKRGGSGHHHHHH
# Target: C3 convertase complex (UniProt P01024 23-1663; P00751 260-764)
# Test: cell-based or functional assay
# Throughout, for C3 convertase activity % of the control: test concentration or dose not given here.
# Chain of C3 convertase complex (P01024 23-1663, chain 1 of 2): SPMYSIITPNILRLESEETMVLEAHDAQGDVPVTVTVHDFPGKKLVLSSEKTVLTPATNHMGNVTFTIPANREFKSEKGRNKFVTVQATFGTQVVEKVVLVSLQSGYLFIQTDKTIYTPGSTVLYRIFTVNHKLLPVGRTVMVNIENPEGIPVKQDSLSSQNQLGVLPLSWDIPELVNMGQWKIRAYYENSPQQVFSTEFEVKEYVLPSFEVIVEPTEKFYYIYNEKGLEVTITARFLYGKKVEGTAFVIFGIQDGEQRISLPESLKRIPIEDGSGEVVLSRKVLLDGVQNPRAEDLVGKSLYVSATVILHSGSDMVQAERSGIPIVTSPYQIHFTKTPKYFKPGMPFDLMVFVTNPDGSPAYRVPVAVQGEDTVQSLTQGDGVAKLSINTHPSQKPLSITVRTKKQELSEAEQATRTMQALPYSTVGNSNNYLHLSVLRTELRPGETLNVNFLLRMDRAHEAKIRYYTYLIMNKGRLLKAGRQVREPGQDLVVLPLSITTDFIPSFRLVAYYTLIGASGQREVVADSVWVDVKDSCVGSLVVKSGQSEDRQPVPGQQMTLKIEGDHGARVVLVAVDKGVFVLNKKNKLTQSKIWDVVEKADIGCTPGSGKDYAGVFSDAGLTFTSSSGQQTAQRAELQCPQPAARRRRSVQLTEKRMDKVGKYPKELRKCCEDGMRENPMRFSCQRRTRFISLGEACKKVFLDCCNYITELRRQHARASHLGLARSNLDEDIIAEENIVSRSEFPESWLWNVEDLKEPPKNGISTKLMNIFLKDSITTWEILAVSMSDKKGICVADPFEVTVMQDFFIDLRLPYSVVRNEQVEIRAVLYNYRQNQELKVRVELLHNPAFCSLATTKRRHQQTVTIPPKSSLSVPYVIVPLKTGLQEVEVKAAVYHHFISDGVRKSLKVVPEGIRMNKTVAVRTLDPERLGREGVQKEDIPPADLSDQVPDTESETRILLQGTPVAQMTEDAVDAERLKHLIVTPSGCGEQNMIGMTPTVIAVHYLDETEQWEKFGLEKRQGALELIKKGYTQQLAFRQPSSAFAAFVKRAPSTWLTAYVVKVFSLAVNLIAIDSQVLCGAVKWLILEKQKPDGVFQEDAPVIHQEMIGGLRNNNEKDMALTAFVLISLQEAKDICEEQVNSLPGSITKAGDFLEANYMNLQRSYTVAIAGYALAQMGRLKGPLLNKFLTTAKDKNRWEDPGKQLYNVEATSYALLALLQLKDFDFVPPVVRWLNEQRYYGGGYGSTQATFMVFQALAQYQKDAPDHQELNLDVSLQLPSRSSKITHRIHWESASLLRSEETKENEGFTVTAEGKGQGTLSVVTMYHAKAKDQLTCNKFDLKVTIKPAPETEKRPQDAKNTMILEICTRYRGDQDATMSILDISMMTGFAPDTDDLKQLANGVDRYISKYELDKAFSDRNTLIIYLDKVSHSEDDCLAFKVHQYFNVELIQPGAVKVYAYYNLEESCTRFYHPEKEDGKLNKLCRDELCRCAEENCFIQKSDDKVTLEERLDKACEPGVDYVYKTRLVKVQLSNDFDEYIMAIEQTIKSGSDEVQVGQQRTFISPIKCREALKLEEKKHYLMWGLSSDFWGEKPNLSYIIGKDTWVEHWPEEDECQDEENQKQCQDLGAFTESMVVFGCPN
# Chain of C3 convertase complex (P00751 260-764, chain 2 of 2): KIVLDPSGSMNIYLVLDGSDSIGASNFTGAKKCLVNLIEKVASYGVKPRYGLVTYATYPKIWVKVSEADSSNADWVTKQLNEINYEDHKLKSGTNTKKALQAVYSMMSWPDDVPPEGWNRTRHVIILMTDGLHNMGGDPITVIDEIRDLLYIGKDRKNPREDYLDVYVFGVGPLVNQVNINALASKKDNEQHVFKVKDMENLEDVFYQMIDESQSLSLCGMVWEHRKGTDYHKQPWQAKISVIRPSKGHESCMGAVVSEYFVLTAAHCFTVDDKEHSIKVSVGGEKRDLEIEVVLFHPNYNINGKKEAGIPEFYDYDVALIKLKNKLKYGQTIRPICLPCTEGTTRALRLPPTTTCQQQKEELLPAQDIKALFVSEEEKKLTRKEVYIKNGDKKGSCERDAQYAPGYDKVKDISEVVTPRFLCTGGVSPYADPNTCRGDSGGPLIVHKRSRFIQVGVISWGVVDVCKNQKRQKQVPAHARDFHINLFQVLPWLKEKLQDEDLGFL
Binder,C3 convertase activity % of the control,C3 convertase activity IC50
B1,69 % of the control,0.172 µg/mL
B2,73 % of the control,0.0916 µg/mL
B3,77 % of the control,0.471 µg/mL
B4,72 % of the control,0.542 µg/mL
B5,104 % of the control,0.0645 µg/mL
B6,239 % of the control,0.0281 µg/mL
